Source: PMC2685089

B1: dsNHE (32R:32Y) (dsDNA)
DNA 1: AGGGCGGTGTGGGAAGAGGGAAGAGGGGGAGG
DNA 2: CCTCCCCCTCTTCCCTCTTCCCACACCGCCCT

How the values were obtained:
Experiment in all cases: EMSA
Up1 [1] = biological target: T1, Up1 (UniProt P09651-2 2-196)
Up1 [2] = biological target: T1, Up1; remark: listed apart in the source
hnRNP A1 (A1) = hnRNP A1 (A1) (UniProt P09651-2 2-320)

Row | Binder | binding result (Up1 [1]) | Kd (Up1 [2]) [nM] | binding result (hnRNP A1 (A1))
1 | AGGGAGGGCGCTGGGAGGAGGG (structured_DNA) [CKIT] | binds |  | 
2 | AGGGCGGTGTGGGAAGAGGGAAGAGGGGGAGG (structured_DNA) [32R] |  | ~50 | 
3 | B1 | no binding |  | no binding
